What was measured:
[1] = target: monomeric full length gp120 of BaL isolate (HIV-1 isolate BaL); experiment: SPR, mAb immobilised, 1:1 Langmuir
[2] = target: single-chain gp120BaL-sCD4 complex (FLSC) (HIV-1 isolate BaL) (UniProt P01730); experiment: SPR, mAb immobilised, 1:1 Langmuir
[3] = target: single-chain gp120BaL-sCD4 complex (FLSC) (HIV-1 isolate BaL) (UniProt P01730); experiment: isothermal titration calorimetry, A32 IgG

| Substance | Kd [1] [nM] | koff [1] [s⁻¹] | kon [1] [M⁻¹ s⁻¹] | Kd [2] [nM] | fold change of KD, FLSC relative to gp120BaL [2] [fold] | fold change of ka, FLSC relative to gp120BaL [2] [fold] | fold change of kd, FLSC relative to gp120BaL [2] [fold] | koff [2] [s⁻¹] | kon [2] [M⁻¹ s⁻¹] | Kd [3] [nM] | ΔH [3] [kcal/mol] |
| --- | --- | --- | --- | --- | --- | --- | --- | --- | --- | --- | --- |
| mAb N60-i3 (antibody) | 2.03 | 0.000512 | 253000 | 0.25 | 8 | 4.9 | 1.6 | 0.000314 | 1.24e+06 |  |  |
| mAb 2.2c (antibody) | 12 | 0.000875 | 73000 | 0.5 | 24 | 15.7 | 1.6 | 0.000556 | 1.15e+06 |  |  |
| mAb A32 (antibody) | 3.2 | 0.000437 | 139000 | 0.23 | 13.9 | 3.2 | 4.3 | 0.000102 | 443000 | 11.5 | -3.15 |
| mAb JR4 (antibody) | 2.34 | 0.000611 | 262000 | 0.18 | 13 | 2.5 | 5.3 | 0.000116 | 643000 |  |  |
| mAb N5-i5 (antibody) | 5.03 | 0.00036 | 72000 | 0.29 | 17.3 | 11.5 | 1.5 | 0.000238 | 825000 |  |  |
